Assay: soluble on expression in E. coli; label from the status in PepcDB or PDB records

Sequence | soluble on expression in E. coli
MDTNITWHTASVSKDERRVKNGHHSFVIWFTGLSASGKSTVANAVARKLFEKNIGNYVLDGDNIRHGLNKDLGFSESDRMENIRRIGEVAKLFVDQGAVVLTAFISPFRVDRKQVRDLLAVDEFIEVFVKCPIEECEKRDPKGLYKKARKGDIKEFTGIDSPYEEPEKAELIVETHKYSIEECAEQIVKYLQERSLI | not soluble
MGSDKIHHHHHHMNLRHLVFFKELARTQHMAKAAENLGISQPSLSYAIKKLEHELGVPLFEADGRNIKLTSIGGVYLKYVTATLNDLSQGNELVKQLMDPDTGHVKLGFTYTLGQQLVPELLSHFKNQSENQAITFELGQGNSGVLLQALADEKYDIVLASNVDRLGEQLTAHLFDFIPLVQQEIVAVVPNDHPAVQKNPLHVEDLAPYPMILFSQNSGLRPLIDQILSAAHVQPKVAYEVEEDYTMAGFVRYNMGVALMPYLPLLNPERVQIKHLADQPLQHQIYLVVRRSGFITPAVHRFQEFIRSYCWQHYTNQERSI | not soluble
MQEAVLQLIEVQLAQEEVTESPLGGDENAQLHASGYYALFVDTVPDDVKRLYTEAATSDFAALAQTAHRLKGVFAMLNLVPGKQLCETLEHLIREKDVPGIEKYISDIDSYVKSLL | soluble
MGSDKIHHHHHHMITNQKLKKSLEEIKNITSFDAILYSAKGKHLTGTVEEPEHSDIFVKEFIVSEEDVREKNDAIAFAVEIDSELEYVLVMFCPYTSENLVIGRMAVCQLRTLVLGESERYDRNNFIQNILLGNMLGSDIINRAKKLHIENRKRVVYVIDTGKNSNEIAVELAKNLADIRSGDFVVAMDEHNVVLVKDVEDIDSPKLQEKLSSIAGSLVDNLLAEAMIKVRVGYGNPTDVLPKITESYQEAKMALEVGRLFYVEKEIMAYDRLGIGRLIYQLPMSLCEMFIREVFGDEVPQILDDEEAMSTISKFFENNLNISETARQLYVHRNTLVYRLERIEKSIGLDIRTFDDAMIFKIATMVLAHIKDSRQGR | not soluble
LYQHMQQQIQVQAAQNIALQDQLQQALIVPNQRIAQLEQQQLSDAKTFQELSKLATDQSQLQDRLNKLAQRSPTHWMASEAEYLVNMAGRKLWLEKDPRTATDLLKSADETIAAMNNPALLPIRKALAKDIAATTNLKSADIEGSVLALDALIGQLDKLPLNRADGEASTAEDTTISGDLNDWQSNLSKTWKALTQDFITIRHRTADVPALLAPDQQWYLVENIRHKLLQSQLALYRYDRAAYHQSLMMARQWIQSYFDVQAHQTSEAIAAIDKLATLELDPITLKAFEAKPLLLQLTSYGELTSLEEPQL | not soluble
MNNMTDLKAIQARSLEMAEYFVAFCKEHDLLCYLCGGGAIGALRNKGFIPWDDDLDFFMPRKDYEKLAELWPRYADERYFLSKSHKDFVDRNLFITIRDKKTTCIKPYQQDLDLPHGLALDVLPLDYYPKNPAERKKQVRWALIYSLFCAQTIPEKHGDLMKWGSRILLGLTPKSLRYRIWKKAEKEMTKYDLADCDGITELCSGPGYMRNKYPITSFEDNLFLPFEGTEMPIPIGYDVYLRTAFGDYMTPPPADKQVPHHDAVIADMDKSYTEYKGEYGGLEHHHHHH | soluble
MGSDKIHHHHHHMIDFLDVQKETPRIRIAIDRVGVKNIKFPLKIHDDFAFLTLNLFVDVPADRKGADMSRAVESIQKVINAGSYGERIGDIGIAICDEALSRFNYSEKAQCEVNIQYYRRSGERYLEYRMYVETAKDRKQIMKNEIGISYVTMTACPCAMETTRALISMDNPDISDAISAIPTITHNQRNVTKLTVDNRSKMITVWDLADVMERVQGKPLDSLLKRVEEGRLVYSAHRNPKFVEDVVREIAYEAARVLGVPDEATIKVSSESDESIHPHNAYAEIDTTAGELRKLHLH | not soluble
MSLKMSDIAKMAGVSKAAVSFALNGKPGVSDETRKKIFKVIKDQGYEPLRKHKKGGVRKIASISLIIIQDRTGMMNRSYASLPFFDTLVSELSQNVSGAGGQMQIVNLDINHLHEGLNNEALQQSKASIVLATDLNQKQVQLINRKLRNVIFVDNYFEYIQADFVSIDNFQGAYRAGKFIVKKGYRKIGYVASNHAISNFLQRRSGFRKAMREANIQIPPEYVFSLNPTELRGSLPALFRQKNNWPEAIFCEDDYMALRLLNALTRQGIKVPQDIAVMGFDDISEDTMVIPELTTIHVPITQIVDQAINQLQCKVADTDWLPQKCFISTKLIERESEGHHHHHH | not soluble
MDDEEKDMADSFQNEVPAARVNIKLDLHTGNAKKKVELPLKLLAVGDYSNGKEQRPLSERDKVDINKNNFNSVMAEFSPAVNLTVEDTLNGNGNEQNIALEFKSLKDFEPEQVAKNIPQLRVLLAMRNLLRDLKSNLLDNATFRRELENILKDPTLSSELRDELAKIAPQENV | soluble
MKLVTISGPPSSGKTAVLAGVIRAMMASGLKVGALKYDCLATNDDDVFRAIGVPVQTGLSGNLCPDHYFVSNIEECLDWGIREGFDFLLSESAGLCNRCAPHIKGVLAVCVIDNLMGATTPKKIGPMLKYADIVVITKGDIVSQAEREVFAFQVRRANPRAKIMHVNGITGQGAGELASQFLLAPETTCLDGSRLRFSMPAALCSYCLGETRIGMEFQLGNVKKIKMSEEPARLEHHHHHH | soluble
NVFMRKKDNTIDYRYFIEPNIMTSNIDDLLLEKPVAFQLEQFQKELIDSNVNPQLVQLVVDDATI | not soluble
MTFLFDCLILLNILIATCQAIGRTQSTAIEGVLLCEDGPAKGVLIKLYDHDTVSPDELMDSAKTDADGHFRLSGTADEISGIEPKINIYHDCDDGILPCQRRITIFVPSKYVSNTKQPSETFNLGRLQLAGKYAGESRDCLH | soluble
MSLTTLVNLTPTKEQRKYQEDELIAFLDLQMNTFTANSENNDEAPSLLKKETSFNTDIWIENLFKFGFKKVILTAKLNNGICLWQSNCSKVNINTFSLENNYDDLVKKVSKSCKKFGLKFGIHLTLKDYLTLNLTPEEYDNYYTSQLKELMTNYSQISEVIMDMTSLDEYYDSLDFERYFKVVKEINPKCMISSPIGPDVRWTYYSDIESSKNYFYSSINLDLLKEDFNNEEIRKGNIYGDTWIVGESIYSLSDCLNHNKDSLSNLKHVYNNSLGRNTNLVLVLSPNTDGLLNHNELSLLSDFSKYIKETFSNNLIKGSSILATNSSSSDSYNLIDDYKKSYWIANENAVNPYIEIDFKTITEFNILEIREWIAEGQNVEEFKVYAYNNGWFELYNGTSIGYRHIAKLNNIKTDKIKISFTKYKNPPMINHIGAYLGEGHHHHHH | soluble
SNAMFKEAINNYLHTHGYESIDLKAVLFDMDGVLFDSMPNHAESWHKIMKRFGFGLSREEAYMHEGRTGASTINIVSRRERGHDATEEEIKAIYQAKTEEFNKCPKAERMPGALEVLTKIKSEGLTPMVVTGSGQTSLLDRLNHNFPGIFQANLMVTAFDVKYGKPNPEPYLMALKKGGFKPNEALVIENAPLGVQAGVAAGIFTIAVNTGPLHDNVLLNEGANLLFHSMPDFNKNWETLQSALKQD | soluble
MSLCQLLGMNCNTPTDIMFSFEGFRRRGGITDHHADGFGIGFFEGKGVRLFHDDKPSVNSPVADLVRAYQIKSENVIAHIRKASQGQTSLANTHPFMREMWGGYWLFAHNGHLIDFFPEQGEFFHPVGTTDSERAFCHILNRLRTRFAARPDDDTLFDAIAGLTHEIRKFGLFNFMLSDGIALFAHASTLLHYIVRQAPFGKARLLDDDVMVDFAEVTTPSDRVAVIATLPLTRDESWSQLAVDELVMFREGNIVRHDRPENPVYMSAEEGLEIARAEGGSHHHHHH | soluble
MPRPKILKRATVQPSAAVPVKKSTPEKEGSRQKKTNGKENASRNLQSNLEEDLEQLGFEDETVSMAQSAIENYFMQGKSASERMNNAKSRRGRRAGNGNTEEIEEDDEISNAITDFTKCDLPGLRNYITKKDNTEFEKRLEHLADNDFGKWKLYLAAGFNILLHGVGSKRDVLTEFENELSDYTYMRVDARKDGLNVKVLLGAINENMKLNCNVKRGQSTISWARSIRRKMNSQQLILIIDNIEAPDWRSDQEAFCELLENRDSVKLIATVDHIYSTFIWNSRQLSSLSFVHITINTFEIPLQELMTGDSRLLGLDARSNQSSHTMSSLDVFWKSLAVNSQKLFRLFFQMYFDTKKPVKFWDLFNAAKDDFIASTDAALRTQLVEFKDHRVLKWTRGDDGNDQLSGIVELRLVTEFLESKNMPLDEKKDE | not soluble
MEAVQSSGRRMVHAIVWRYFEPRLRGSSVSNPGSNLVRFSEFCRGSMGFHICRLCDQASQWLSLDRSTSQWLSLDRSTVTTAFVWTDAFTTGTAGFNWDNKQPDNKDLNQPCAIVLAAHAPIHFQSYQFQPAMMDDAECAADSVASMGRTISGYVCGKPARQ | not soluble
MSLKTFLVCALEPSANLHLKEVLKAYKKDFGEFELHGIYDESLCKEFDLNSKPLYSSHEFSAMGFIEVLPLIFKAKKAIKELANLSFTQKINGILCIDSPAFNIPFAKALKKAGSKIPRIYYILPQVWAWKKGRIPIIESHFDILASILPFDNQFFNKSTYIGHPLLDEIKEFKNQEDINHTFSKKDDEKTIAFLPGSRRSEIRRLMPIFKELSQKFKGKKILCVPSFNLEKLEVYGDISEFKIESNTPKVLKKADFAFICSGTATLEAALVGTPFVLAYKAKAIDIFIAKLFVKLKHIGLANIFCDFAGKEALNPEFLQDKVNVLNLYEAYNKYDYKAFFAKVDFLKEYLQFGSAKNLAKILNEIEGHHHHHH | soluble
MFFDDTYLDYKARVSYSLFCAKDFNETAAFIKANRILMTSTELAAYMLKPENYKYAIIARIKNSMVGIVLFTDFESEVFINHLYVSPIHRFKGIGSNLLKELKAFMGQRTVSYIDTSNNYMPWMEVLDVSKKAAVINQLGSFYKCSK | not soluble
AIALVEDSGHHLPESADIENALDLLLKAQLERAFGPELAEHFWAARQPRTLDERLAFIRKCWIGVFKDSPLSTFGLERLEQLERLCRSKRRGRELSAAEHHQFAEELARLWEQVQRLLPRAAPETSYASSASAGGVHSGDAHTPATLSDAESAHAAPEAMRIEAPATSARSASGCMARVSSDVAAAATNVSLVVLDGENIAWAHGQNAVFSPKGIAIAVDFFRKRGYRCVVFLPDYRRKRADLPTVSASDALVFVPAGEYDDTFALGYAVGHDAILVTNDLLQDHLDQFYPDEGEAREALRKWLGSHRCSFTFVGDEFLPNPHFFLP | soluble
MAAAGTLERSFVELSGAERERPRHFREFTVCSIGTANAVAGAVKYSESAGGFYYVESGKLFSVTRNRFIHWKTSGDTLELMEESLDINLLNNAIRLKFQNCSVLPGGVYVSETQNRVIILMLTNQTVHRLLLPHPSRMYRSVSWLSAISFISQITLGVTNVVLERCLLELKEIWILVIPHQAYFDSYRLKLEHHHHHH | not soluble
MDGIRVYIETFGCTFNQADSEIMAGVLREEGAVLTGIDDADVIIINTCYVKHPTEHKVINRIKKIQETYPEKGLVVAGCMVEIDPSKLEAISGDASWLGPHQLRRAPQAVRAASNGLVERITGFTSDVKVKVPRVRSNPLIHIIPICEGCNGSCSYCCTRFARGRIQSYPSDLIISEAREAVASGCREIQLTAQDTAAYGVDTGEKLSDIIKGISGIPGNFRIRVGMMHPASVLRDLDGLVEAFKSEKVYSFLHLPVQSGSDSVLADMERGHTVDEFRMIVERFRSEIPDISIATDIIVGYPTEEREDFMDTCSLLEEVKPSFIHLSKYRHRPRARSSSLDEIDFRELRRRSRALEELKMRITEEENRRLVGSFQEILVVERGRKGGFIGRTGSYIPVVTETGEPGSFRRVRIRDATGTYLLADLEHHHHHH | soluble
MHHHHHHSSGRENLYFQGDPRRRNILRSLRRNTKKPKPKPRPSITKATWESNYFGVPLTTVVTPEKPIPIFIERCIEYIEATGLSTEGIYRVSGNKSEMESLQRQFDQDHNLDLAEKDFTVNTVAGAMKSFFSELPDPLVPYNMQIDLVEAHKINDREQKLHALKEVLKKFPKENHEVFKYVISHLNKVSHNNKVNLMTSENLSICFWPTLMRPDFSTMDALTATRTYQTIIELFIQQCPFFFYNR | soluble

Source: the DeepSol protein solubility set
